Test results: patent US20220098290A1 (JUNTENDO EDUCATIONAL FOUNDATION, published 2022)
Numbering of substitutions follows the chain as printed. Blank lines part the entries; values can stand above or below the binder they belong to.

What was measured:
[1] = target: T1, peptide having cysteine at the amino-terminal of the amino acid sequence (RRMMRTKMR) included in SEQ ID NO: 1; experiment: SPR
T1 peptide: CRRMMRTKMR

[2] = target: T2, peptide having cysteine at the amino-terminal of the amino acid sequence (RRMMRTKMR) included in SEQ ID NO: 1; experiment: SPR (Biacore T200), clone B3 antibody immobilised, peptide at 1.25-20 nM
T2 construct: Synthetic peptide, analyte in SPR; also called antigen used for production of the antibody
T2 peptide: CRRMMRTKMR
Description: Sensor chips (GE Healthcare, Cat #BR100530) for surface plasmon resonance analysis were loaded on a surface plasmon resonance analyzer Biacore T200 (GE Healthcare) and were equilibrated with an HBS-EP buffer (GE Healthcare, Cat #BR100669). Clone B3 antibody adjusted to a concentration of 10 μg/mL with Acetate 5.5 (GE Healthcare, Cat #BR100352) was immobilized using an Amine coupling kit (GE Healthcare, Cat #BR100050) at an immobilized amount of 200 RU. Subsequently, surface plasmon resonance was measured using a peptide having cysteine at the amino-terminal of the amino acid sequence ([…]) included in SEQ ID NO: 1 adjusted to concentrations of 20, 10, 5, 2.5, and 1.25 nM with an HBS-EP buffer, and the dissociation constant was acquired with Biacore T200 Evaluation Software.

[3] = target: T3, Del 52 type mutant CALR protein (full-length) (human, UniProt P27797 18-417); experiment: immunoblotting and ELISA on Del 52 and its alanine mutants
T3 construct: mature; also called 52-nucleotide deletion type; CALR Del 52
T3 sequence (looked up): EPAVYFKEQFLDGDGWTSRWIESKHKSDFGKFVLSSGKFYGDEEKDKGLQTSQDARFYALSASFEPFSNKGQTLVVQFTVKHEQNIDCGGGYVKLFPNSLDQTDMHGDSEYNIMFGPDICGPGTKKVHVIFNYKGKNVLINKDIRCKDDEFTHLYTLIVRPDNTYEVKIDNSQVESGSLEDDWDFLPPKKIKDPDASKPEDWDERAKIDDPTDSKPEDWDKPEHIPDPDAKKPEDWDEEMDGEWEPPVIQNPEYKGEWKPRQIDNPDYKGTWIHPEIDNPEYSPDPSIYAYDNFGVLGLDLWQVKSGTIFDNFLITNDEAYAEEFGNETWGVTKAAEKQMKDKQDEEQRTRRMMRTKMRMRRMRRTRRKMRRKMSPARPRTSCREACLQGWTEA
Description: It was verified that clone B3, C6, and G1 antibodies recognize the amino acid sequence used as an antigen on the mutant CALR protein. The reactivities of the respective antibodies against mutant CALR proteins each having alanine substituted for one amino acid at each position of the amino acids used as the antigen and the amino acids around it were evaluated by immunoblotting (FIG. 13A) and ELISA (FIG. 13B).
The Del 52 type mutant CALR proteins each having alanine (A) substituted for one amino acid at each position of the amino acids in the region from the 367th threonine (T) to the 378th arginine (R) or the protein not having substitution were expressed in HEK 293T cells, and culture supernatants containing secreted mutant CALR proteins were prepared by centrifugation (1,600 g×5 min, 4° C.). The resulting protein solutions were each heat-treated in the presence of SDS and a reducing agent, then developed on a gel by SDS polyacrylamide electrophoresis, electrically transferred on a PVDF membrane, and reacted with a TBS-T solution containing 5% skimmed milk at room temperature for 1 hour, followed by reaction with a 5% BSA/TBS-T solution containing a peroxidase-labeled clone B3, C6, or G1 antibody or a mouse anti-CALR antibody (Abcam plc., Cat #ab22683) at 4° C. overnight. The PVDF membrane reacted with the mouse anti-CALR antibody was washed with a TBS-T solution and was then reacted with a 5% skimmed milk/TBS-T solution containing a peroxidase-labeled anti-mouse IgG antibody (Jackson Immuno Research Inc., Cat #115-035-003) at room temperature for 1 hour. Subsequently, all of the PVDF membranes were washed with a TBS-T solution and were then reacted with a peroxidase luminescence reagent (Thermo Fisher Scientific K.K., Cat #34094). The resulting signals were detected using a FUSION image pickup apparatus (manufactured by Vilber-Lourmat S.A.).

Kd [1]: 855 pM
binding result [2]: binds
binding result [3]: binds
B1: clone B3 antibody (antibody, V domains shown)
VH: QVQLQQSGAELVKPGSSVKISCKASGYTFTRNFIHWIKQQPGNGLEWIGWIFPGDGDTEYNQKFNGKATLTADKSSSTAYMQLSSLTSEDSAVYFCARGNYNYEYFDYWGQGVMVTVSS
VL: DIQMTQSPASLSASLGETVSIECLASEDIYSYLAWYQQKPGKSPQLLIFAANRLQDGVPSRFSGSGSGTQFSLKISGMQPEDEGDYFCLQGSKFPYTFGPGTKLELN
notes: Rat monoclonal antibody purified from a hybridoma (WKY/Izm rat x mouse SP2 myeloma), detected with anti-rat IgG; also called rat clone B3 antibody

binding result [3]: binds
B2: clone C6 antibody (antibody, V domains shown)
VH: QVQLQQSGAELVKPGSSVKISCKASGYTFTSYFVHWIKQQPGDGLEWIGWIYPGDGDTEYNHKFNGKSTLTADRSSSTAYMQLSSLTSEDSAVYFCARGNYYDGREVMDAWGQGASVTVSS
VL: DVVLTQTPPTLSATIGQSVSISCRSSQSLLDSDGETYLNWLLQRPGQSPQLLIYSVSNLESGVPNRFSGSGSETDFTLKISGMEAEDLGVYYCMQATHGPYTFGAGTKLELK
notes: Rat monoclonal antibody purified from a hybridoma, detected with anti-rat IgG; also called rat clone C6 antibody

binding result [3]: binds
B3: clone G1 antibody (antibody, V domains shown)
VH: B2 VH with H62Q, S68A
VL: B2 VL with S48C, M83V, A96G
notes: Rat monoclonal antibody purified from a hybridoma, detected with anti-rat IgG; also called rat clone G1 antibody
